The results in this text go back to the supplement of paper PMC5998384.

The subject of data set [1] is HeLa Kyoto. As to the kind of experiment: thermal stability score vs G1/S (z-score of summed log2 fold changes over temperatures); higher = more thermally stable than in G1/S.
The test system of data set [2] is HeLa Kyoto. As to the kind of experiment: solubility change mitosis vs G1/S (difference of NP-40 vs SDS log2 ratios) (log2 ratio difference); higher = more soluble in mitosis.
Data set [3] deals with HeLa Kyoto. As to the kind of experiment: solubility in G1/S (NP-40 vs SDS abundance) (log2 ratio); higher = more soluble. The following applies: cell cycle stage: G1/S.
For data set [4], the system named is HeLa Kyoto. As to the kind of experiment: melting temperature (median over replicates), in situ; higher = more thermally stable.
[5] abbreviates: cell cycle stage: early G1 (4.5 h after nocodazole release).
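Wherever melting temperature (median over replicates), in situ is given: HeLa Kyoto cells synchronized by double thymidine or nocodazole block, proteins quantified by TMT10plex mass spectrometry, three independent biological replicates.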
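Wherever solubility change mitosis vs G1/S (difference of NP-40 vs SDS log2 ratios) is given: synchronized HeLa Kyoto cells (double thymidine block for G1/S, nocodazole release for mitosis), protein amounts in NP-40 versus SDS lysates quantified by mass spectrometry, three biological replicates.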
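Wherever solubility in G1/S (NP-40 vs SDS abundance) is given: HeLa Kyoto cells arrested at G1/S by double thymidine block, proteins quantified by TMT10plex mass spectrometry in mild NP-40 versus SDS extracts, three biological replicates.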
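Wherever thermal stability score vs G1/S (z-score of summed log2 fold changes over temperatures) is given: synchronized HeLa Kyoto cells, proteins quantified by TMT10plex mass spectrometry, three biological replicates, mitosis taken 0.5 h after nocodazole release, G1/S directly after double thymidine block.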

“MWLAAAAPSLARRLLFLGPPPPPLLLLVFSRSSRRRLHSLGLAAMPEKRPFERLPADVSPINYSLCLKPDLLDFTFEGKLEAAAQVRQATNQIVMNCADIDIITASYAPEGDEEIHATGFNYQNEDEKVTLSFPSTLQTGTGTLKIDFVGELNDKMKGFYRSKYTTPSGEVRYAAVTQFEATDARRAFPCWDEPAIKATFDISLVVPKDRVALSNMNVIDRKPYPDDENLVEVKFARTPVMSTYLVAFVVGEYDFVETRSKDGVCVRVYTPVGKAEQGKFALEVAAKTLPFYKDYFNVPYPLPKIDLIAIADFAAGAMENWGLVTYRETALLIDPKNSCSSSRQWVALVVGHELAHQWFGNLVTMEWWTHLWLNEGFASWIEYLCVDHCFPEYDIWTQFVSADYTRAQELDALDNSHPIEVSVGHPSEVDEIFDAISYSKGASVIRMLHDYIGDKDFKKGMNMYLTKFQQKNAATEDLWESLENASGKPIAAVMNTWTKQMGFPLIYVEAEQVEDDRLLRLSQKKFCAGGSYVGEDCPQWMVPITISTSEDPNQAKLKILMDKPEMNVVLKNVKPDQWVKLNLGTVGFYRTQYSSAMLESLLPGIRDLSLPPVDRLGLQNDLFSLARAGIISTVEVLKVMEAFVNEPNYTVWSDLSCNLGILSTLLSHTDFYEEIQEFVKDVFSPIGERLGWDPKPGEGHLDALLRGLVLGKLGKAGHKATLEEARRRFKDHVEGKQILSADLRSPVYLTVLKHGDGTTLDIMLKLHKQADMQEEKNRIERVLGATLLPDLIQKVLTFALSEEVRPQDTVSVIGGVAGGSKHGRKAAWKFIKDNWEELYNRYQGGFLISRLIKLSVEGFAVDKMAGEVKAFFESHPAPSAERTIQQCCENILLNAAWLKRDAESIHQYLLQRKASPPTV [NPEPPS]”: the thermal stability score in data set [1] (setting [5]) was -0.503; in data set [1] (cell cycle stage: mitosis), -1.51. Also, the “solubility change mitosis (log2)” value in data set [2] is -0.148. The “solubility in G1/S (log2)” value in data set [3] is 0.0254. Also, the melting temperature in data set [4] (cell cycle stage: G1/S) worked out at 53.9 °C; in data set [4] (cell cycle stage: mitosis) it was 53.6 °C.

Consider “MWSGRSSFTSLVVGVFVVYVVHTCWVMYGIVYTRPCSGDANCIQPYLARRPKLQLSVYTTTRSHLGAENNIDLVLNVEDFDVESKFERTVNVSVPKKTRNNGTLYAYIFLHHAGVLPWHDGKQVHLVSPLTTYMVPKPEEINLLTGESDTQQIEAEKKPTSALDEPVSHWRPRLALNVMADNFVFDGSSLPADVHRYMKMIQLGKTVHYLPILFIDQLSNRVKDLMVINRSTTELPLTVSYDKVSLGRLRFWIHMQDAVYSLQQFGFSEKDADEVKGIFVDTNLYFLALTFFVAAFHLLFDFLAFKNDISFWKKKKSMIGMSTKAVLWRCFSTVVIFLFLLDEQTSLLVLVPAGVGAAIELWKVKKALKMTIFWRGLMPEFQFGTYSESERKTEEYDTQAMKYLSYLLYPLCVGGAVYSLLNIKYKSWYSWLINSFVNGVYAFGFLFMLPQLFVNYKLKSVAHLPWKAFTYKAFNTFIDDVFAFIITMPTSHRLACFRDDVVFLVYLYQRWLYPVDKRRVNEFGESYEEKATRAPHTD [CLPTM1L]”, for which the thermal stability score in data set [1] (setting [5]) was -1.1; in data set [1] (cell cycle stage: mitosis), -1.25. The “solubility change mitosis (log2)” value in data set [2] is -0.226. Further, the “solubility in G1/S (log2)” value in data set [3] was -0.0724. Also, the values for the melting temperature in data set [4] (cell cycle stage: G1/S) and in data set [4] (cell cycle stage: mitosis) were 52.8 °C and 53.2 °C, respectively.

In the case of “MWTFLGIATFTYFYKKFGDFITLANREVLLCVLVFLSLGLVLSYRCRHRNGGLLGRQQSGSQFALFSDILSGLPFIGFFWAKSPPESENKEQLEARRRRKGTNISETSLIGTAACTSTSSQNDPEVIIVGAGVLGSALAAVLSRDGRKVTVIERDLKEPDRIVGEFLQPGGYHVLKDLGLGDTVEGLDAQVVNGYMIHDQESKSEVQIPYPLSENNQVQSGRAFHHGRFIMSLRKAAMAEPNAKFIEGVVLQLLEEDDVVMGVQYKDKETGDIKELHAPLTVVADGLFSKFRKSLVSNKVSVSSHFVGFLMKNAPQFKANHAELILANPSPVLIYQISSSETRVLVDIRGEMPRNLREYMVEKIYPQIPDHLKEPFLEATDNSHLRSMPASFLPPSSVKKRGVLLLGDAYNMRHPLTGGGMTVAFKDIKLWRKLLKGIPDLYDDAAIFEAKKSFYWARKTSHSFVVNILAQALYELFSATDDSLHQLRKACFLYFKLGGECVAGPVGLLSVLSPNPLVLIGHFFAVAIYAVYFCFKSEPWITKPRALLSSGAVLYKACSVIFPLIYSEMKYMVH [SQLE]”, the thermal stability score in data set [1] (setting [5]) was -0.599; in data set [1] (cell cycle stage: mitosis), -0.00194. The “solubility change mitosis (log2)” value in data set [2] was -0.0643. Besides, the “solubility in G1/S (log2)” value in data set [3] is -0.21. For the same sequence, the figures for the melting temperature in data set [4] (cell cycle stage: G1/S) and in data set [4] (cell cycle stage: mitosis) were 52.7 °C and 53.3 °C, respectively.

As to “MYALFLLASLLGAALAGPVLGLKECTRGSAVWCQNVKTASDCGAVKHCLQTVWNKPTVKSLPCDICKDVVTAAGDMLKDNATEEEILVYLEKTCDWLPKPNMSASCKEIVDSYLPVILDIIKGEMSRPGEVCSALNLCESLQKHLAELNHQKQLESNKIPELDMTEVVAPFMANIPLLLYPQDGPRSKPQPKDNGDVCQDCIQMVTDIQTAVRTNSTFVQALVEHVKEECDRLGPGMADICKNYISQYSEIAIQMMMHMQPKEICALVGFCDEVKEMPMQTLVPAKVASKNVIPALELVEPIKKHEVPAKSDVYCEVCEFLVKEVTKLIDNNKTEKEILDAFDKMCSKLPKSLSEECQEVVDTYGSSILSILLEEVSPELVCSMLHLCSGTRLPALTVHVTQPKDGGFCEVCKKLVGYLDRNLEKNSTKQEILAALEKGCSFLPDPYQKQCDQFVAEYEPVLIEILVEVMDPSFVCLKIGACPSAHKPLLGTEKCIWGPSYWCQNTETAAQCNAVEHCKRHVWN [PSAP]”, the results for the thermal stability score in data set [1] (setting [5]) and in data set [1] (cell cycle stage: mitosis) were -1.22 and -0.0458, respectively. Moreover, in data set [2], the “solubility change mitosis (log2)” value amounted to 0.32. Further, the “solubility in G1/S (log2)” value in data set [3] was found to be 0.0145. Also, the melting temperature in data set [4] (cell cycle stage: G1/S) worked out at 58.6 °C; in data set [4] (cell cycle stage: mitosis), 56.3 °C.

Take “MYDNMSTMVYIKEDKLEKLTQDEIISKTKQVIQGLEALKNEHNSILQSLLETLKCLKKDDESNLVEEKSNMIRKSLEMLELGLSEAQVMMALSNHLNAVESEKQKLRAQVRRLCQENQWLRDELANTQQKLQKSEQSVAQLEEEKKHLEFMNQLKKYDDDISPSEDKDTDSTKEPLDDLFPNDEDDPGQGIQQQHSSAAAAAQQGGYEIPARLRTLHNLVIQYASQGRYEVAVPLCKQALEDLEKTSGHDHPDVATMLNILALVYRDQNKYKDAANLLNDALAIREKTLGKDHPAVAATLNNLAVLYGKRGKYKEAEPLCKRALEIREKVLGKDHPDVAKQLNNLALLCQNQGKYEEVEYYYQRALEIYQTKLGPDDPNVAKTKNNLASCYLKQGKFKQAETLYKEILTRAHEREFGSVDDENKPIWMHAEEREECKGKQKDGTSFGEYGGWYKACKVDSPTVTTTLKNLGALYRRQGKFEAAETLEEAAMRSRKQGLDNVHKQRVAEVLNDPENMEKRRSRESLNVDVVKYESGPDGGEEVSMSVEWNGGVSGRASFCGKRQQQQWPGRRHR [KLC1]”: the thermal stability score turned out to be 0.136 in data set [1] (setting [5]) and 0.172 in data set [1] (cell cycle stage: mitosis). Also, in data set [2], the “solubility change mitosis (log2)” value was -0.175. Further, the “solubility in G1/S (log2)” value in data set [3] was 0.299. Besides, the melting temperature came out at 51.6 °C in data set [4] (cell cycle stage: G1/S) and 51.4 °C in data set [4] (cell cycle stage: mitosis).
